Article PMC3807213 (Journal of molecular biology, 2012)

B1: EcoP15I modification (Mod) subunit (enzyme, UniProt P12364 1-644, looked up)
chain: MKKETIFSEVETANSKQLAVLKANFPQCFDKNGAFIQEKLLEIIRASEVELSKESYSLNWLGKSYARLLANLPPKTLLAEDKTHNQQEENKNSQHLLIKGDNLEVLKHMVNAYAEKVKMIYIDPPYNTGKDGFVYNDDRKFTPEQLSELAGIDLDEAKRILEFTTKGSSSHSAWLTFIYPRLYIARELMREDGTIFISIDHNEFSQLKLVCDEIFGEQNHVGDLVWKNATDNNPSNIAVEHEYIIVYTKNKEQLISEWKSNISDVKNLLVNIGEEFASKYTGNELQEKYTQWFREHRSELWPLDRYKYIDKDGIYTGSQSVHNPGKEGYRYDIIHPKTKKPCKQPLMGYRFPLDTMDRLLSEEKIIFGDDENKIIELKVYAKDYKQKLSSVIHLDGRVATNELKELFPEMTQPFTNAKTIKLVEDLISFACDGEGIVLDFFAGSGTTAHTVFNLNNKNKTSYQFITVQLDEPTKDKSDAMKHGYNTIFDLTKERLIRASKKNRDQGFKVYQLMPDFRAKDESELTLSNHTFFDDVVLTPEQYDTLLTTWCLYDGSLLTTPIEDVDLGGYKAHLCDGRLYLIAPNFTSEALKALLQKVDSDKDFAPNKVVFYGSNFESAKQMELNEALKSYANKKSIELDLVVRN

What was measured:
AUC = target: the molecule itself; experiment: AUC
[1] = target: B1; experiment: AUC + other: dynamic light scattering

Binder | stoichiometry N (AUC) | stoichiometry N [1]
B1 | 2 | 
EcoP15I restriction (Res) subunit (enzyme, UniProt Q5ZND2 1-970, looked up) MSKGFTLEKNLPHQKAGVDAVMNVFVSATPHLTDNVAVRLLANPELKLSEQQYYNNIKNVQAFNGIAHSKDNHNAKSNIIDVSMETGTGKTYTYIKTIFDLNKSFGINKFIIIVPTLSIKAGTVNFLKSDALKEHFRDDYKRELRTYVVESQKNAGKNTKSYMPQAIHDFVEASNFNKKYIHVLVINSGMINSKSLTDTYDTGLLDNQFNTPVDALRAVKPFIIIDEPHRFPTGKKTWENIEKFNAQYIIRYGATFSEGYKNLVYRLTAVDAFNDDLVKGIDAYIEDIVGDGNANLKFVKSDGKEATFELNENNNKKSFKLAKGESLSKTHSAIHDLTLDALNKSTAVLSNGIELKIGSSINPYSYDQTLADNMMRKAVKEHFKLEKELLTQRPRIKPLTLFFIDDIEGYRDGNDISGSLKTKFEEYVLAEANELLKTEQDAFYKNYLEKTVTNISSVHGGYFSKDNSDKDDKIEQEINEILHDKELLLSLDNPRRFIFSKWTLREGWDNPNVFQICKLRSSGSTTSKLQEVGRGLRLPVNEYMCRVKDRNFTLKYYVDFTEKDFVDSLVKEVNESSFKERVPSKFTQELKEQIMAQYPELSSRALMNELFNDEIIDDNDNFKDSDAYSRLKSKYPAAFPIGVKPGKIKKATDGKRRTKMRVGKFSELKELWDLINQKAVIEYKINSESEFLSIFKSFMLEETERFTKSGVHTRIDKIYIHNDMAMSKSIVSDDDDFAKLNTMSYREFLDNLSQTIFVKHGTLHKVFCDIKDTINITEYLNIQTIRKIKSGFSKYLLNNSFNKFSLGYNLISGSIHPTKFTNADGNPLGEVLSSDLGVLQDNAKAPLDTYLFEEVFYDSELERRNITDREIQSVVVFSKIPKNSIKIPVAGGYTYSPDFAYVVKTAEGDYLNFIIETKNVDSKDSLRLEEKRKIEHAQALFNQISQSVKVEFRTQFANDDIYQLIKSALP |  | 1 Res per Mod (2:2)
